Reference: patent publication US20160207996A1 (ARGEN X N V, published 2016)

What was measured:
RatB1-C1-D1-llFc = target: T1, RatB1-C1-D1-llFc (rat); assay: binding ELISA; the panel prints no target, by paragraph 562 the coated rat loop B1-C1-D1-llama Fc
T1 construct: also called rat Nav1.7 loopB1-C1-D1 llamaFc chimera
T1 chain: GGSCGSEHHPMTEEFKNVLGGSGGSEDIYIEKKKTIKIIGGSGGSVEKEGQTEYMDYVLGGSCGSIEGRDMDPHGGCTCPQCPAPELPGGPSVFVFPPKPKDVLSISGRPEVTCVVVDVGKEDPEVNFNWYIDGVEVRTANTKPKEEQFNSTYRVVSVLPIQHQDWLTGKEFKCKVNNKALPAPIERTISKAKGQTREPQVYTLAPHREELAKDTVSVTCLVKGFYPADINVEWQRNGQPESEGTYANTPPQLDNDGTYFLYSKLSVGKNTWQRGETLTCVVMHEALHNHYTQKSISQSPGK

hNav1.5-B1-C1-D1-llFc = target: T2, hNav1.5-B1-C1-D1-llFc (human); assay: binding ELISA; the panel prints no target, by paragraph 288 and paragraph 555 the coated hNav1.5 loop B1-C1-D1-llama Fc
T2 construct: also called Nav1.5 extracellular loop B1-C1-D1 llamaFc chimera
T2 chain: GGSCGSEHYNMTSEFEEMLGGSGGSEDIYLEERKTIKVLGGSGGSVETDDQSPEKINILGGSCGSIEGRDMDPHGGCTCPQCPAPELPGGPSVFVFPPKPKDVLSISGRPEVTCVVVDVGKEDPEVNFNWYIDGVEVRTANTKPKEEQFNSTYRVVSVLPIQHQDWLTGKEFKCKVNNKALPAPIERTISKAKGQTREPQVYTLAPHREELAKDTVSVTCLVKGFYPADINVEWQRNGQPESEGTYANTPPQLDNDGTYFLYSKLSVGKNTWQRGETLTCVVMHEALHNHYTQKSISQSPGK
Excerpt: The therapeutic potency of an anti-hNav1.7 antibody will highly depend on the lack of binding to other Nay family members. Of particular interest is hNav1.5, which is expressed on cardiac muscle cells. As such, cross-reactive binding of hNav1.7 antibodies to hNav1.5 could lead to heart failure. To assay the specificity of the mAbs derived from DNA immunization for hNav1.7, the corresponding loopA3 and loopB1-C1-D1 sequences of hNav1.5 were cloned as llamaFc chimera and cross-reactivity was determined using a binding ELISA (FIG. 8). All clones, except clone 9A6 and 9H4, show no cross-reactivity to hNav1.5. In addition, cross reactivity for hNav1.2 was tested for the loopA3-binding clones 8A7 and 8B6 using hNav1.2 and hNav1.7 derived monomeric, GST-tagged loopA3 peptides (Abnova, H00006326-Q01 (hNav1.2) and H00006335-Q01 (hNav1.7)). Again, no cross-reactive binding was observed.

[1] = target: human Nav1.7 (full length) (human) (UniProt Q15858); assay: cell-based or functional assay
hNav1.7-loopC3-llama Fc = target: T3, hNav1.7-loopC3-llama Fc (human); assay: binding ELISA on coated loop-llama Fc chimera (20 ng/well), OD620
T3 construct: whole entry: loop C3, linker, llama Fc; also called hNav1.7-loopC3-llfc
T3 chain: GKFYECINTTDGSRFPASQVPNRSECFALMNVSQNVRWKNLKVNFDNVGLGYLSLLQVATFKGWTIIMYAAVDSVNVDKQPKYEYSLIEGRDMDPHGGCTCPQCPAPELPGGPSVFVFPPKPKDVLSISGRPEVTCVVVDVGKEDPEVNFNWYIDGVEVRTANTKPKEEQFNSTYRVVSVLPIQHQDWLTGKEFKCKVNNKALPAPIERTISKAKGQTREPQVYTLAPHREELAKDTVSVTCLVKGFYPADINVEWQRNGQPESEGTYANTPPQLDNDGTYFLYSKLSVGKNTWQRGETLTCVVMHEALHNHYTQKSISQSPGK
Procedure: (§1) For all DNA-immunization derived mAbs the binding affinity for the various hNav1.7-loop-llama Fc chimeras was tested in a binding ELISA. Therefore, a Maxisorp plate (Nunc) was coated with 20 ng/well of hNav1.7-loopA3-llama Fc, hNav1.7-loopB1-C1-D1-llama Fc or hNav1.7-loopC3-llama Fc. Remainder of the ELISA setup is as described above. […] Only at very high concentration minor cross-reactivity is observed for some clones.

[2] = target: T4, hNav1.7-loopA3-llama Fc fusion (human); assay: as above
T4 construct: also called hNav1.7-loopA3-llFc; loopA3-llamaFc chimera
T4 chain: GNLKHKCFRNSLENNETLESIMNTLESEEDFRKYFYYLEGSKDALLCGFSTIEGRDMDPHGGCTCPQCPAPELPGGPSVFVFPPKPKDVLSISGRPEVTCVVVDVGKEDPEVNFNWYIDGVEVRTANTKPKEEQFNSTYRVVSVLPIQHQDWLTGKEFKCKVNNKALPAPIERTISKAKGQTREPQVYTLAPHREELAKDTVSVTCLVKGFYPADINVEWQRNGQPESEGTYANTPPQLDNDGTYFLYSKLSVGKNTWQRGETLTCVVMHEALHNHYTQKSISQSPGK
Procedure: as §1

[3] = target: T5, hNav1.7-loopB1-C1-D1-llama Fc (human); assay: ELISA, coated loop-B1-C1-D1-llama Fc 20 ng/well, mAb titrated
T5 construct: whole entry: loops B1, C1, D1 joined by linkers, llama Fc; also called hNav1.7-loopB1-C1-D1-llfc
T5 chain: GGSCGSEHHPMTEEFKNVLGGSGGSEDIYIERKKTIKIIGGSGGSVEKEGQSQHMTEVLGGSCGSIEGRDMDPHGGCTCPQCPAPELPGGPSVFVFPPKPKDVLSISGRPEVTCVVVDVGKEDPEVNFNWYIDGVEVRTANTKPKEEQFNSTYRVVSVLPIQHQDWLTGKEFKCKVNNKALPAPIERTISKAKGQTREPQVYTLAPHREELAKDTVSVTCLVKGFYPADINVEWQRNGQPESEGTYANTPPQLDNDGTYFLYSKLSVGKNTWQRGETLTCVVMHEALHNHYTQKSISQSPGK
Procedure: mAbs originating from the loopA3-llama Fc immunization were assayed for their affinity for hNav1.7-loopA3. Therefore, a Maxisorp plate was coated with 10 ng/well of loopA3-llamaFc chimera and incubated overnight at 4° C. The next day, the plate was blocked with PBS+1% casein for 2 hours at RT. Subsequently a concentration gradient of antibodies was applied (range 0.25 pM-66 nM) for another hour. Antibody binding to loopA3 was detected using a HRP-conjugated anti-human Fc antibody (Abcam, Ab7499) (incubation 1 hour at RT, dilution 1/5000 in PBS+0.1% casein), followed by TMB addition and OD620 nm measurement. EC50 values were determined using GraphPad Prism software. For comparison purposes a known hNav1.7-loopA3 binding monoclonal antibody, UCB_932 (US2011/0135662), was tested.
In a next experiment, the binding affinity of the loop-specific mAbs was determined and compared to reference mAbs as described in US2011/0135662 (for loop A3: UCB_932, for loopB1-C1-D1: UCB_983, for loopC3: UCB_1066; US2011/0135662). Affinities were determined using an ELISA with a loop-coating of 10 ng/well (loopA3-llama Fc), 20 ng/well (loop-B1-C1-D1-llama Fc) or 50 ng/well (loopC3-llama Fc). The remainder of the experimental setup was identical to abovementioned binding ELISAs. Most of the mAbs show pM affinity for the respective hNav1.7 extracellular loop they are binding. […] The EC₅₀ for the reference mAbs could not be determined (nd) from the ELISA data available because the binding was too weak.

Nt-GCGR-hFc [4] = target: T6, Nt-GCGR-hFc (human, UniProt P47871 26-136); assay: ELISA with a titration of biotin-Nt-GCGR (x axis) against the mAbs, OD620
T6 construct: domain: N-terminal domain; also called Nt-GCGR-Fc; recombinant N-terminal domain of GCGR; not shown: hFc
T6 sequence (P47871 26-136): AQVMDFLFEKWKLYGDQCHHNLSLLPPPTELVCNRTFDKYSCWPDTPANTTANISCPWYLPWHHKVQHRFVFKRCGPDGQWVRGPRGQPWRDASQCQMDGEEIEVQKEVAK

Nt-GCGR-hFc [5] = target: T6, Nt-GCGR-hFc; assay: mAb binding ELISA on coated Nt-GCGR-hFc
Procedure: Binding to GCGR- and CXCR4-lipoparticles (negative control) (A) and binding to Nt-GCGR-hFc (B). Lipoparticles were coated at 10 U/well. Nt-GCGR was coated at 1 μg/ml. mAbs were allowed to bind to the coated target at 1 μg/ml.

B1: 9H4 (antibody, human IgG1, V domains shown)
VH: EVQLVQPGAELRNPGASVKVSCKASGYIFTSAYIDWVRQAPGQGLEWMGRIDPEDGETRYAHQFRDRVTFTADTSTSTVYAELNSLRSEDTAVYYCAITIEGFWGQGTQVTVSS
VL: ATMLTQSPGSLSVVPGESASISCKTSRSLVHSDGKTYLSWLLQKPGQSPQRLIYQVSNRGSGVPDRFTGSGSGTDFTLKISGVKAEDAGVYYCAQATYYPLSFGSGTRVEIK
binding result (RatB1-C1-D1-llFc): binds
binding result (hNav1.5-B1-C1-D1-llFc): binds
% inhibition of inward current following P02 voltage protocol, 10 µg/ml [1]: 3.8%
% inhibition of inward current following P02 voltage protocol, 25 µg/ml [1]: 19.8%
% inhibition of inward current following P02 voltage protocol, 100 µg/ml [1]: 23.9%
binding result (hNav1.7-loopC3-llama Fc): binds
binding result [2]: binds
EC50 [3]: 0.19 nM

B2: mAb 6A5 (antibody, IgG1, V domains shown)
VH: EVQLQESGGGSVQPGGSLRLSCAASGFTFSANAMTWVRQAPGKGLEWVSAISGTGASTSYADSVKGRFTVSRDNAKNTLYLQVNNLKPEDTAVYRCAKLGGDTWYMEYWAKGTLVTVSS
VL: SYELTQSPSVSVALRQTAKITCGGDNIGSKYVNWYQQKPSQTPVLVIYKDSNRPSGIPERFSGSNSGNTAALTISGAQAEDEADYYCQVWDGSAAVFGGGTHLSVLG
binding result (Nt-GCGR-hFc [4]): no binding (tested: about 20 ng/ml biotin-Nt-GCGR)

B3: mAb 6B7 (antibody, IgG1, V domains shown)
VH: QLQLVESGGGLVQPGGSLRLSCAASGFTFSSNAMTWVRQAPGKGLEWVSAISSTGNSITEADSVKGRFTISRDNAKNMLYLQMNSLKPEDTAVYYCAKLGGDTWYMEYWGQGTQVTVSS
VL: SSALTQPSAVSVSLGQTARITCQGDNFGSIDPHWYQQKPGQDPVVVIYQYNNRPSGIPERFSGLKSGNTATLIISGAQAEDEADYYCQLWDSRAKAVFGGGTHLTVLG
binding result (Nt-GCGR-hFc [5]): no binding (tested: 1 µg/ml)

B4: mAb 6D8 (antibody, IgG1, V domains shown)
VH: QLQLVESGGGLVQPGGSLRLSCAASGFTFSSNAMTWVRQAPGKGLEWVSAISSTGNSITEADSVKGRFTISRDNAKNMLYLQMNSLKPEDTAVYYCAKLGGDTWYMEYWGQGTQVTVSS
VL: SYELTQSPSVSVALRQTAKITCGGNGIGSKIVHWYQQKPGQAPVLVIYADVRRPSEIPERFSGSNSGDTATLTVSGAQAEDEADYYCQVWDSSANAAVFGGGTHLTVLG
binding result (Nt-GCGR-hFc [5]): no binding (tested: 1 µg/ml)
